From patent US20240261333A1 (published 2024) come the findings set out here.

One test has as its target RPL38 (human, UniProt P63173 1-70). Put plainly: co-IP with anti-FLAG, C-FLAG B3GNT2, mass spectrometry.
The target of a further test is T1, CHCHD3 (human, UniProt Q9NX63 2-227, limits assumed).
T1 construct: also called NP_001304106.1 (+1)
T1 sequence (looked up): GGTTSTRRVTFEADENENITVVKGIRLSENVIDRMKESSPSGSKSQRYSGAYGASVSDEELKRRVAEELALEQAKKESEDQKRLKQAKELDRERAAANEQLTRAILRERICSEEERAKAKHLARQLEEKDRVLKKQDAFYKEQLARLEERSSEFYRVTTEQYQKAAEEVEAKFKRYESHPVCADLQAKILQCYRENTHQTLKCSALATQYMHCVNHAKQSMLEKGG
The test is described as above.

In another test the target is RPS20 (human, UniProt P60866 2-119). Described as above.
In another test the target is T2, PSMA3 (human, UniProt P25788 2-255).
T2 construct: also called NP_002779.1 (+1)
T2 sequence (looked up): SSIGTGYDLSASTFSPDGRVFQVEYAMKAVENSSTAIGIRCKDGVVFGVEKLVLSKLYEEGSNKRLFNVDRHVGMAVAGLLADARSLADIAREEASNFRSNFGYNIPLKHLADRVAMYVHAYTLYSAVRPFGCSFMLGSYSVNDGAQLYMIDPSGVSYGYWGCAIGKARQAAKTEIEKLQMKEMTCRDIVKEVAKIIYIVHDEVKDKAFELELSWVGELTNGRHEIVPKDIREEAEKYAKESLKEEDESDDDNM
The test is described as above.

In another test the target is T3, PSMB5 (human, UniProt P28074 60-263).
T3 construct: also called NP_002788.1
T3 sequence (P28074 60-263 limits assumed): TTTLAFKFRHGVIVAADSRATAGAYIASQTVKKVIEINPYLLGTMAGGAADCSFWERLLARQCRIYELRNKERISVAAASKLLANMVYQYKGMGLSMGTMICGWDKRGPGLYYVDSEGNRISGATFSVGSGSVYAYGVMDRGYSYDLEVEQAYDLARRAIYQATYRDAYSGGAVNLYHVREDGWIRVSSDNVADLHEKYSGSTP
The description is as above.

The target of the next test is T4, JUP (human, UniProt P14923 1-745).
T4 construct: also called NP_001339702.1
T4 sequence (looked up): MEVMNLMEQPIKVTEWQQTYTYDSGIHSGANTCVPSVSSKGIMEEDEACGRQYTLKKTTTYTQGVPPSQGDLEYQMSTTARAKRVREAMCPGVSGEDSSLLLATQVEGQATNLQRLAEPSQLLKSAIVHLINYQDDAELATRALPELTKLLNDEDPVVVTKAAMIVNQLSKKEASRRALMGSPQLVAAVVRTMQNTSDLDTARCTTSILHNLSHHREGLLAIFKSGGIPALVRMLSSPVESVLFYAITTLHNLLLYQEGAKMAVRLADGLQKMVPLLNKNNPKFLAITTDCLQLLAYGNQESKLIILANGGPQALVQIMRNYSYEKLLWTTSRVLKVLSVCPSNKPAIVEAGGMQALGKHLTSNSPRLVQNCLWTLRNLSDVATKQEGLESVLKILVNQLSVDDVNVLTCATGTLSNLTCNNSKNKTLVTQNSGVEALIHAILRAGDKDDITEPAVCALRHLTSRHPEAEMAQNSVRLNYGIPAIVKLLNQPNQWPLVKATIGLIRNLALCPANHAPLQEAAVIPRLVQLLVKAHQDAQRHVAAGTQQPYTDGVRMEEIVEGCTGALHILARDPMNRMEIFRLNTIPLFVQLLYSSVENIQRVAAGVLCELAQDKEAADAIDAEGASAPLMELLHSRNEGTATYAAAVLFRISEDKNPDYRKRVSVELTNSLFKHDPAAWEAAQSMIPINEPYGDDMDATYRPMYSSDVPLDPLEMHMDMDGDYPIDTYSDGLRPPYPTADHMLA
The description is as above.

Another test deals with T5, GAPDH (human, UniProt P04406 2-335, limits assumed).
T5 construct: also called NP_001344872.1 (+1)
T5 sequence (P04406 2-335 limits assumed): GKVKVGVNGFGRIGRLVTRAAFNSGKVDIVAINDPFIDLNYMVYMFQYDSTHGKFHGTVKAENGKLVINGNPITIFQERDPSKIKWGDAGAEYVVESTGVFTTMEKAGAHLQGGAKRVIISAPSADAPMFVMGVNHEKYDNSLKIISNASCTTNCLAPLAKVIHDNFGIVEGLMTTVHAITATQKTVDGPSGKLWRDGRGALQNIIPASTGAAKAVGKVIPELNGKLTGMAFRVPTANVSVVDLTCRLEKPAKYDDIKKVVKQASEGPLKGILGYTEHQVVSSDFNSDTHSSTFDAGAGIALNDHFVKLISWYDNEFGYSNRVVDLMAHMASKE
Put plainly: co-IP with anti-FLAG, mass spectrometry; lysate of cells with N-FLAG B3GNT2. As to the method:
Cells were plated in 10-cm cell culture dishes and grown to 60-80% confluency. For each condition, two biological replicates were harvested for co-IP. Cells were washed with PBS and 4 mL of lysis buffer (20 mM HEPES, 1% Triton X-100, 150 mM NaCl, 1 mM EDTA, and 10% glycerol) containing protease inhibitor cocktail was added. Cells were scraped and lysate was incubated at 4° C. under rotary agitation for 1 h. Lysate was centrifuged at 14,000×g for 10 min at 4° C. Supernatant was transferred to a new tube and an aliquot was taken as the input. […] For Western blots, 10 μg/mL Chicken Anti-FLAG (Aves labs ET-DY100) and IgY control (R&D Systems AB-101-C) antibodies were biotinylated (Thermo Fisher Scientific 90407) and added to the respective conditions. Lysates with antibodies were incubated at 4° C. under rotary agitation overnight. For each mL of lysate, 50 μL of Pierce Protein A/G Magnetic Beads (Mass spectrometry; Thermo Fisher Scientific 88803) or Pierce Streptavidin Magnetic Beads (Western blot; Thermo Fisher Scientific 88817) was washed twice with lysis buffer. Lysates with antibodies were added to the beads and incubated at 4° C. under rotary agitation for 4 h. Beads were washed with lysis buffer 3 times and resuspended in lysis buffer for storage.
Magnetic beads were resuspended in 100 mM Tris pH 7.8, reduced, alkylated and digested with trypsin at 37° ° C. overnight. This solution was subjected to solid phase extraction to concentrate the peptides and remove unwanted reagents followed by injection onto a Shimadzu HPLC with fraction collector. Eight fractions were collected and after concentration were injected on a Waters NanoAcquity HPLC equipped with a self-packed Aeris 3 μm C18 analytical column 0.075 mm by 20 cm, (Phenomenex). Peptides were eluted using standard reverse-phase gradients. The effluent from the column was analyzed using a Thermo Orbitrap Elite mass spectrometer (nanospray configuration) operated in a data dependent manner for 54 minutes. The resulting fragmentation spectra were correlated against the known database using Proteome Discover 1.4 (Thermo Fisher Scientific).

B1: C-terminal FLAG tagged B3GNT2 (enzyme, human, UniProt Q9NY97 1-397, looked up)
chain: MSVGRRRIKLLGILMMANVFIYFIMEVSKSSSQEKNGKGEVIIPKEKFWKISTPPEAYWNREQEKLNRQYNPILSMLTNQTGEAGRLSNISHLNYCEPDLRVTSVVTGFNNLPDRFKDFLLYLRCRNYSLLIDQPDKCAKKPFLLLAIKSLTPHFARRQAIRESWGQESNAGNQTVVRVFLLGQTPPEDNHPDLSDMLKFESEKHQDILMWNYRDTFFNLSLKEVLFLRWVSTSCPDTEFVFKGDDDVFVNTHHILNYLNSLSKTKAKDLFIGDVIHNAGPHRDKKLKYYIPEVVYSGLYPPYAGGGGFLYSGHLALRLYHITDQVHLYPIDDVYTGMCLQKLGLVPEKHKGFRTFDIEEKNKNNICSYVDLMLVHSRKPQEMIDIWSQLQSAHLKC
notes: FLAG-tagged ORF overexpressed in cells; pulled down from lysate with mouse anti-FLAG; also called C-FLAG B3GNT2; C-term flag; not shown: C-terminal FLAG tag
With B1, the entries for the “co-IP mass spectrometry count” value in the test with RPL38 and with CHCHD3 were 8 and 15, respectively.

B2: C-terminal FLAG tagged B3GNT2 (enzyme, human, UniProt Q9NY97 1-397, looked up)
chain: B1 chain
notes: FLAG-tagged ORF overexpressed in A375 cells; pulled down from the lysate with mouse anti-FLAG; also called C-FLAG B3GNT2; C-term flag; not shown: C-terminal FLAG tag
As to B2, the “co-IP/MS count, C-term flag” value with RPS20 was determined as 7; with PSMA3, 0; in the test with PSMB5 it was 0; in the test with JUP it was 43.

B3: N-terminal FLAG tagged B3GNT2 (enzyme, human, UniProt Q9NY97 1-397, looked up)
chain: B1 chain
notes: Bait of the co-IP; pulled down with mouse anti-FLAG (Millipore Sigma F3165) from cell lysate; also called N-FLAG B3GNT2; N-term FLAG; not shown: N-terminal FLAG tag
For the molecule B3, the “co-IP mass spectrometry count” value with GAPDH was 18.
